The series in a line: yeast display, Sf9 membrane polyspecificity reagent, FACS + sequencing; frameworks hold sequencing errors. In short, it runs like this: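 Polyreactivity labels are assigned by the sorting gate from which each nanobody was recovered. The gates were low and high (top ~1%), set on anti-HA fluorescence for expression and streptavidin fluorescence for reagent binding. Before sorting, galactose-induced (36–48 hours) yeast display cells were stained for 1 hour at 4 °C with 10% biotinylated, detergent-solubilized Sf9 membrane reagent.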
Regarding “QVQLVESGGGLVQAGGSLRLSCAASGRIFSRYAMGGYRQAPGTERELVAAINNGGSTYYADSVKGRFTISRDNAKNTVYLQMNSLKPEDTAVYYCAKLWWSNFKPVEYWGQGTQVTVSS”, the “polyreactivity (PSR sort gate)” value is listed as “low polyreactivity”. In the case of “QVQLVESGGGLVQAGGSLRLSCAASVSISLYYAMGWYRQAPGKERELVAAISTRGGSTYYADSVKGRFTISRDNAKNTVYLQMNSLKPEDTAVYYCAARTRLTADPRYGISSKMYYWGQGTQVTVSS”, the “polyreactivity (PSR sort gate)” value was “high polyreactivity”. The same measure for “QVQLVESGGGLVQAGGSLRLSCAASGYIFIWYDMGGYRQAPGKERELVAAISGSGGSTYYADSVKGRFTISRDNAKNTVYLQMNSLKPEDTAVYYCAAVPAHFYGYDYWGQGTQVTVSS”: “low polyreactivity”; for “QVQLVESGGGLVQAGGSLRLSCAASGITFWVYVKGWYRQAPGKEREFVADISSGAGTTYYADSVKGRFTISRDNAKNTVYLQMNSLKPEDTAVYYFAARRWWPQWYDYWGQGTQVTVSS”: “high polyreactivity”. The value for “QVQLVESGGGLVQAGGSLRLSCAASGITFWYYAMGWYRQAPGKERELVAAISWDGGSTYYADSVKGRFTISRDNAKNTVYLQMNSLKPEDTAVYYCAAEQYLYTWARHRANFDYWGQGTQVTVSS” was “high polyreactivity”; that for “QVQLVESGGGVVQAGGSLRLTCAASGRTCPIYAMGWYRQAPGKERELVATITWNDGNTYYADSVKGRFTISRDNAKNTVYLQMNCLKPEDTAVYYCAAKGGWPWHYHYQKNSEYDYWGQGTQVTVSS” was “low polyreactivity”. The value for “QVQLVESVGGLVQSGGSLRLSCAASGFIFVVYAMGSYRQAPGKERELVATISSGGGTYYADSVKGRFTISRDNAKNTVYLQMNSLKPEDTAVYYCAARRRRLYHFGGNNYWGQGTQVTVSS” was “high polyreactivity”; that for “QVQLVESGGGLVQAGGSLRLSCAASGSIFKRYAMGWYRQAPGKERELVAGITSSGGSTYYADSVKGRFTISPDNAKNTVYLQMNSLKPEDTAVYYCAAPYSSYKVRPYDYWGQGTQVTVSS” was “low polyreactivity”. As to “QVQLVESGGGLVKAGGSLRLSFAASGRNFRRNAMGWYRQAPGRERELVAAISSSGGSTYYADSVKGRFTISRDNAKNTVYLQMNSLKPEDTAVYYCAVRSRFGYYWGQGTQVTVSS”, the “polyreactivity (PSR sort gate)” value is given as “high polyreactivity”. The same measure for “QVQLVESGGGLVQAGGTLRLSCAASGFNFASYAMGWYRQAPGKERELVDAITSDGSTNYADSVKGRFTISRDNAKNTVYLQMNSLKPEDTAVYYCAADPAKKYDQNTEYEYWGQGTQVTLSS”: “low polyreactivity”; for “QVQLVESGGGLVQAGGSLRLSCAASGRIFYHYAMGWYRQAPGKERELVAVIRSTGSTNYADSVKGRFTISRDNAKNTVYFQLKSLIPEDTAVYYCAVRRATFSYWYFNGGYWGQGTQVTVSS”: “high polyreactivity”; for “QVQLVESGGGLVQAGGSLRLSCAASGSTFRQYTMGWYRQAPGKERELVAAISRGCGNTYYADSVKGRFTISRDNAKNTVYLQMNSLKPEDTAVYYCAADRSYSGDSWGQGTQVTVSS”: “high polyreactivity”. As for “QVQLVESGGGLVQAGGSLRLSCAASGFIFPGYAMGWYRQAPGKERELVATISRRGGSTYYADSVKGRFTISRDNAKNTVYLQMNSLQPEDTAVYYCNRIVTYGWQYDYDYWGQGTQVTVSS”, the “polyreactivity (PSR sort gate)” value is on record as “high polyreactivity”. With “QVQLVESGGGLVQAGGRLRLSCAASGRILYLNAMGWYRQAPGKERELVAAITKSGGSTYYADSVKGRFTISRDNAKNTVYLQMNSLKPEDTAVYYCAAEWVYYDYWQRFLYIDYDYWGQGTHVTVSS”, the “polyreactivity (PSR sort gate)” value is reported as “high polyreactivity”. The value for “QVQLVESGGGLVQAGGSLRLSCAASGSIFSWNARGCYRQAPGKERELVAGITWSGGGTSYADSVKGRFTISRDNAKNTVYLQMNSLKPEDTAVYYCAKEWIFDFNYWGQGTQVTVSS” was “low polyreactivity”. The value for “QVQLVESGGGLVQAGGSLRLSCAASGSIFRRYAMGWYRQAPGKEREFVAAITRSGGGTYYADSVKGRFTLSRDNAKNTVYLQMNSLIPEDTAVYYCAKDVFVQRSRYPEGDYWGQGTQVTVSS” was “high polyreactivity”. The same measure for “QVQLEESGRGLVQAGGSLRISCAASGRIFWGYAMGWYRQAPRKERELVARITSGGDTYYADSVKGRFTISRDNAKNTVYLQMNSLKPEDTAVYYCAAELRPGYRSSYGLIYDYWGQGTQVTVSS”: “low polyreactivity”; for “QVQLVESGGGIVQAGGSLRLICAASGSNFNRYAMGWYRQAPGKERQLVARITNRSGNTYYADSVKGRFTISRDIAKNTVYLQMTSLKPEDTAVYYCAATKSLGRYIMEYWGLGTQVTVSS”: “low polyreactivity”. “QVQLVESGGGLVQAGGSLRLSCAASGIIFRYYAMGWYRQAPGKERELVAGISYRGGSTYYADSVKGRFTISRDNAKNTVYLQMNSLKPEDTAVYYCAAVVYPRNYWGQGTQVTVSS”: the “polyreactivity (PSR sort gate)” value was “high polyreactivity”. The same measure for “QVQLEESGGGLVQAGGSLRLSCAASGFIFSWYAMGWYRQAPGKERELVARISSSGGNTYYADSVKGRFTISRDNAKNTVYLQMNSLKPEDTAVYYCAATRYSLSGYGYWGQGTQVTVSS”: “high polyreactivity”.
